For 2 substances, stoichiometry N results are on record in publication PMC3405907.

Assay [1] addresses capsid shell protein (CSP) of cytoplasmic polyhedrosis virus (cytoplasmic polyhedrosis virus (CPV)). Briefly: cryo-EM structure.
The target of assay [2] is turret protein (TP) of cytoplasmic polyhedrosis virus (cytoplasmic polyhedrosis virus (CPV)). Briefly: cryo-EM structure.

For orientation: stoichiometry N means a count of units in the complex or per binding partner. As to “capsid shell protein (CSP) of cytoplasmic polyhedrosis virus (natural protein)”, the stoichiometry N in assay [1] came out at 120.
In turn, “turret protein (TP) of cytoplasmic polyhedrosis virus (enzyme)” returned a stoichiometry N in assay [2] of 5.
